T1: HPV45 E7 protein, recombinant (His-TEV-E7 fusion from E. coli) (Human Papilloma Virus type 45 (HPV45), UniProt P21736 1-106, CKII phosphorylation of the consensus site serines in the antigen preparation of Example 2; biotin on primary amines in the SPR assay)
T1 construct: mature; also called VE7_HPV45; not shown: N-terminal 6x Histidine tag and TEV cleavage site of the vector
T1 sequence: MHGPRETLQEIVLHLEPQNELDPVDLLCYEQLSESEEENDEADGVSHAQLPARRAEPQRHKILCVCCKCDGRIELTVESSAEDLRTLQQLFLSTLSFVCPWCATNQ

T2: HPV56 E7 protein, recombinant (His-TEV-E7 fusion from E. coli) (Human Papilloma Virus type 56 (HPV56), UniProt P36833 1-105, CKII phosphorylation of the consensus site serines in the antigen preparation of Example 2)
T2 construct: mature; also called VE7_HPV56; not shown: N-terminal 6x Histidine tag and TEV cleavage site of the vector
T2 sequence: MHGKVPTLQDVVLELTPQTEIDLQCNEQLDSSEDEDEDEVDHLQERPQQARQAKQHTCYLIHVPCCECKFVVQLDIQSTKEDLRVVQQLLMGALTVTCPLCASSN

T3: HPV18 E7 protein, recombinant (His-TEV-E7 fusion from E. coli) (Human Papilloma Virus type 18 (HPV18), UniProt P06788 1-105, CKII phosphorylation of the consensus site serines in the antigen preparation of Example 2; biotin on primary amines in the SPR assay)
T3 construct: mature; also called VE7_HPV18; not shown: N-terminal 6x Histidine tag and TEV cleavage site of the vector
T3 sequence: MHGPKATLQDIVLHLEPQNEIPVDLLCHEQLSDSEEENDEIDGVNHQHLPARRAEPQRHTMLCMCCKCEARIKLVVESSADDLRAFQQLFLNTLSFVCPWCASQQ

T4: HPV51 E7 protein, recombinant (His-TEV-E7 fusion from E. coli) (Human Papilloma Virus type 51 (HPV51), UniProt P26558 1-101, CKII phosphorylation of the consensus site serines in the antigen preparation of Example 2)
T4 construct: mature; also called VE7_HPV51; not shown: N-terminal 6x Histidine tag and TEV cleavage site of the vector
T4 sequence: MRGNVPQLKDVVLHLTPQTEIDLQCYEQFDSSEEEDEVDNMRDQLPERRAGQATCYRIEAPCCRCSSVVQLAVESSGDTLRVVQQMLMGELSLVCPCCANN

T5: HPV52 E7 protein, recombinant (His-TEV-E7 fusion from E. coli) (Human Papilloma Virus type 52 (HPV52), UniProt P36831 1-99, CKII phosphorylation of the consensus site serines in the antigen preparation of Example 2)
T5 construct: mature; also called VE7_HPV52; not shown: N-terminal 6x Histidine tag and TEV cleavage site of the vector
T5 sequence: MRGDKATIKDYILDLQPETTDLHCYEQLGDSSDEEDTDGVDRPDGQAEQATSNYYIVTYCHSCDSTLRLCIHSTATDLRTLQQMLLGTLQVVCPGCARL

T6: HPV58 E7 protein, recombinant (His-TEV-E7 fusion from E. coli) (Human Papilloma Virus type 58 (HPV58), UniProt P26557 1-98, CKII phosphorylation of the consensus site serines in the antigen preparation of Example 2)
T6 construct: mature; also called VE7_HPV58; not shown: N-terminal 6x Histidine tag and TEV cleavage site of the vector
T6 sequence: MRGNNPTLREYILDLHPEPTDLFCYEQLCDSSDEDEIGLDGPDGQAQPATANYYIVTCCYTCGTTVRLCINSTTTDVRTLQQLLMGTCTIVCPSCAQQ

T7: HPV35 E7 protein, recombinant (His-TEV-E7 fusion from E. coli) (Human Papilloma Virus type 35 (HPV35), UniProt P27230 1-99, CKII phosphorylation of the consensus site serines in the antigen preparation of Example 2)
T7 construct: mature; also called VE7_HPV35; not shown: N-terminal 6x Histidine tag and TEV cleavage site of the vector
T7 sequence: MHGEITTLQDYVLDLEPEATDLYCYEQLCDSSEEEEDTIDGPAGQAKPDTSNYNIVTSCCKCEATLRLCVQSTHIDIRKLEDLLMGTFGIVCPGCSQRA

T8: HPV5 E7 protein (beta-papillomavirus), recombinant (His-TEV-E7 fusion from E. coli) (Human Papilloma Virus type 5 (HPV5), UniProt P06932 1-103)
T8 construct: mature; also called VE7_HPV05; not shown: N-terminal 6x Histidine tag and TEV cleavage site of the vector
T8 sequence: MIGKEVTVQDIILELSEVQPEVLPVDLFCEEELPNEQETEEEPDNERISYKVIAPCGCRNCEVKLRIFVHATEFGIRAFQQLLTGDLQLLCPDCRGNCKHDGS

T9: HPV11 E7 protein (low risk type), recombinant (His-TEV-E7 fusion from E. coli) (Human Papilloma Virus type 11 (HPV11), UniProt P04020 1-98)
T9 construct: mature; also called VE7_HPV11; not shown: N-terminal 6x Histidine tag and TEV cleavage site of the vector
T9 sequence: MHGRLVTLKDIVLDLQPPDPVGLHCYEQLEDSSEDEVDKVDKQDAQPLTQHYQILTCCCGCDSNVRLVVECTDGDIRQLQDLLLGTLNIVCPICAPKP

T10: HPV6 E7 protein (low risk type), recombinant (His-TEV-E7 fusion from E. coli) (Human Papilloma Virus type 6 (HPV6), UniProt Q84292 1-98)
T10 construct: mature; the only HPV6 entry in the list of constructs is VE7_HPV6A; also called VE7_HPV6A; not shown: N-terminal 6x Histidine tag and TEV cleavage site of the vector
T10 sequence: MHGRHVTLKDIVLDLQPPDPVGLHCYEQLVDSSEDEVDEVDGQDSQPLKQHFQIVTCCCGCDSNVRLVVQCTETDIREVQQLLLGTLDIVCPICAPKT

T11: HPV38 E7 protein (beta-papillomavirus), recombinant (His-TEV-E7 fusion from E. coli) (Human Papilloma Virus type 38 (HPV38), UniProt Q80908 1-100)
T11 construct: mature; also called HPVE7 38; VE7_HPV38; not shown: N-terminal 6x Histidine tag and TEV cleavage site of the vector
T11 sequence: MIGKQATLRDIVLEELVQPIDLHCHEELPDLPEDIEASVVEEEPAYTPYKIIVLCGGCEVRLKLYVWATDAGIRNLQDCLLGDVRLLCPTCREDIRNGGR

T12: HPV31 E7 protein, recombinant (His-TEV-E7 fusion from E. coli) (Human Papilloma Virus type 31 (HPV31), UniProt P17387 1-98, CKII phosphorylation of the consensus site serines in the antigen preparation of Example 2)
T12 construct: mature; also called VE7_HPV31; not shown: N-terminal 6x Histidine tag and TEV cleavage site of the vector
T12 sequence: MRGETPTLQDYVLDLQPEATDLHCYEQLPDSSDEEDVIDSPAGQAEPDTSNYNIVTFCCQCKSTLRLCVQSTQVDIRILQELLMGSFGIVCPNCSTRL

T13: HPV33 E7 protein, recombinant (His-TEV-E7 fusion from E. coli) (Human Papilloma Virus type 33 (HPV33), UniProt P06429 1-97, CKII phosphorylation of the consensus site serines in the antigen preparation of Example 2; biotin on primary amines in the SPR assay)
T13 construct: mature; also called VE7_HPV33; not shown: N-terminal 6x Histidine tag and TEV cleavage site of the vector
T13 sequence: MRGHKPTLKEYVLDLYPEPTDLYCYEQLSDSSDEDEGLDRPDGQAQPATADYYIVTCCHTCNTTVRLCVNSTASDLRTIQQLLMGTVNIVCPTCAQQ

B1: ACAB337 (antibody, IgG1, V domains shown)
VH: DVQLQESGPGLVKPSQSLSLTCTVTGHSITSDYAWNWIRQFPGNKLEWVAYISYSGGTGYNPSLKSRISITRDTSKPNQFFLQLNSVTTEDTATYYCACGDYYYGPRDYWGQGTSVTVSS
VL: DILLTQSPAILSVSPGERVSFSCRASQSIGTSIHWYQQRTNGSPRLLIKYASESISGIPSRFSGSGSGTDFTLSINSVESEDIADYYCQQSNYWPFTFGSGTKLEIKR
notes: also called HPV33E7 IgG1 antibody ACAB337
B2: ACAB167 (antibody, V domains shown)
VH: EVQLEESGGGLVQPKGSLKLSCTASGFPFNTYAMNWVRQAPGKGLEWVARIRTKSNNYATYYADSVKDRFTISRDDSQNMLYLQMNNLKTEDTAMYYCVRLYGYYFDYWGQGTTLTVSS
VL: DIVMTQSPEIMSASPGEKVTMTCSASSSVSFMFWYQQKSGTSPKIWIYDTSKLASGVPARFSGSGSGTSYSLTVSSMEAEDAATYYCQQWNSNPPTFGVGTKLELKR
notes: the printed entries run on into the first residues of the constant domains; also called HPV16E7 IgG2b antibody ACAB167

What was measured:
[1] = target: T1, HPV45 E7 protein, recombinant …; assay: ELISA and dot-blot, semiquantitative crossreactivity; antigens denatured for this antibody
[2] = target: T2, HPV56 E7 protein, recombinant …; assay: as above
[3] = target: T3, HPV18 E7 protein, recombinant …; assay: as above
[4] = target: T4, HPV51 E7 protein, recombinant …; assay: as above
[5] = target: T5, HPV52 E7 protein, recombinant …; assay: ELISA and dot-blot, semiquantitative crossreactivity (++ strong positive); antigens denatured for this antibody
[6] = target: T6, HPV58 E7 protein, recombinant …; assay: as above
[7] = target: T7, HPV35 E7 protein, recombinant …; assay: as above
[8] = target: T8, HPV5 E7 protein (beta-papillomavirus), …; assay: ELISA and dot-blot
[9] = target: T9, HPV11 E7 protein (low risk type), …; assay: ELISA and dot-blot
[10] = target: T10, HPV6 E7 protein (low risk type), …; assay: ELISA and dot-blot
[11] = target: T11, HPV38 E7 protein (beta-papillomavirus), …; assay: ELISA and dot-blot
[12] = target: T5, HPV52 E7 protein, recombinant …; assay: ELISA and dot-blot, semiquantitative crossreactivity (++ strong positive)
Procedure: (§1) Using ELISA and dot-blot techniques semiquantitative crossreactivities of the isolated mAbs was analysed. For this various mAbs were tested against the accepted high risk species.

[13] = target: T6, HPV58 E7 protein, recombinant …; assay: as above
Procedure: as §1

[14] = target: T12, HPV31 E7 protein, recombinant …; assay: as above
Procedure: as §1

[15] = target: T13, HPV33 E7 protein, recombinant …; assay: as above
Procedure: as §1

[16] = target: T1, HPV45 E7 protein, recombinant …; assay: ELISA and dot-blot, semiquantitative crossreactivity
Procedure: as §1

[17] = target: T2, HPV56 E7 protein, recombinant …; assay: as above
Procedure: as §1

[18] = target: T3, HPV18 E7 protein, recombinant …; assay: as above
Procedure: as §1

[19] = target: T7, HPV35 E7 protein, recombinant …; assay: as above
Procedure: as §1

[20] = target: T4, HPV51 E7 protein, recombinant …; assay: as above
Procedure: as §1

| Binder | binding result [1] | binding result [2] | binding result [3] | binding result [4] | binding result [5] | binding result [6] | binding result [7] | binding result [8] | binding result [9] | binding result [10] | binding result [11] | binding result [12] | binding result [13] | binding result [14] | binding result [15] | binding result [16] | binding result [17] | binding result [18] | binding result [19] | binding result [20] |
| --- | --- | --- | --- | --- | --- | --- | --- | --- | --- | --- | --- | --- | --- | --- | --- | --- | --- | --- | --- | --- |
| B1 | no binding | no binding | no binding | no binding | binds | binds | binds | no binding | no binding | no binding | no binding |  |  |  |  |  |  |  |  |  |
| B2 |  |  |  |  |  |  |  | no binding | no binding | no binding | no binding | binds | binds | binds | binds | no binding | no binding | no binding | no binding | no binding |

Source: patent publication US20150023979A1 (VALDOSPAN, published 2015)
